# ± gives the standard deviation of the averaged measurements.
# What was measured:
# [1] = system: Saccharomyces cerevisiae; assay: protein stability index of tFT-peptide fusion (C-terminal peptide) (PSI (0-1 scale)); higher = more stable (slower turnover)
# Experimental: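 MPS profiling in S. cerevisiae of the tFT-X12 degron library: putative degron peptides plus stable controls, 12 aa, fused to the C-terminus of a sfGFP-mCherry timer. Cells are FACS-sorted into 8 mCherry/sfGFP bins and deep-sequenced. PSI runs from 0 (unstable) to 1 (stable). Backgrounds are wild type, das1Δ and doa10Δ at 30 °C, and wild type, das1Δ, cdc34-1 and cdc53-1 at 37 °C; 2-3 technical replicates each.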
# [2] = system: Saccharomyces cerevisiae; assay: as above; conditions: genetic background: wild type; temperature: 30 C
# [3] = genetic background: cdc34-1, temperature: 37 C
# [4] = genetic background: cdc53-1, temperature: 37 C
# [5] = genetic background: das1 deletion, temperature: 30 C
# [6] = genetic background: das1 deletion, temperature: 37 C
# [7] = genetic background: doa10 deletion, temperature: 30 C
# [8] = genetic background: wild type, temperature: 30 C
# [9] = genetic background: wild type, temperature: 37 C
# 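Also: PSI is a weighted mean of sequencing reads over stability bins, variants kept only with over 10 reads, mCherry proximal and sfGFP distal, peptide attached via GGGS linker.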
Sequence,"protein stability index [1, 3]","protein stability index [1, 4]","protein stability index [1, 5]","protein stability index [1, 6]","protein stability index [1, 7]","protein stability index [1, 8]","protein stability index [1, 9]",protein stability index [2]
PPVAYVCHLYVT,0.589 ± 0.058,0.614 ± 0.029,0.5 ± 0.017,0.6058 ± 0.0045,0.309 ± 0.031,0.335 ± 0.028,0.503 ± 0.013,0.428 ± 0.0053
PPVLAPHLCFPP,0.685 ± 0.008,0.736 ± 0.0089,0.657 ± 0.0043,0.739 ± 0.015,0.673 ± 0.028,0.675 ± 0.019,0.713 ± 0.019,0.724 ± 0.018
PRTTHTPLLIAS,0.566 ± 0.046,0.6584 ± 0.003,0.54 ± 0.012,0.662 ± 0.03,0.177 ± 0.012,0.205 ± 0.025,0.296 ± 0.046,0.296 ± 0.021
PSFLAIRVCLLV,0.0466 ± 0.00074,0.0881 ± 0.02,0.147 ± 0.034,0.211 ± 0.0098,0.0853 ± 0.02,0.0766 ± 0.01,0.0987 ± 0.036,0.133 ± 0.021
PSPRLSLPPRLP,0.631 ± 0.01,0.729 ± 0.029,0.677 ± 0.016,0.731 ± 0.017,0.71 ± 0.037,0.686 ± 0.024,0.6948 ± 0.002,0.737 ± 0.022
PSPRRPPRSRFP,0.651 ± 0.023,0.725 ± 0.028,0.653 ± 0.0072,0.7355 ± 0.0031,0.672 ± 0.03,0.654 ± 0.037,0.701 ± 0.017,0.732 ± 0.0084
PSPYSLSPYFLV,0.678 ± 0.032,0.74 ± 0.011,0.646 ± 0.013,0.7674 ± 0.0074,0.255 ± 0.013,0.302 ± 0.043,0.4902 ± 0.0013,0.425 ± 0.044
PSRLSFALLFHL,0.6483 ± 0.00029,0.682 ± 0.017,0.645 ± 0.018,0.7268 ± 0.0049,0.395 ± 0.025,0.406 ± 0.039,0.545 ± 0.0058,0.49 ± 0.025
PTAGFFGLLVLV,0.361 ± 0.0094,0.402 ± 0.035,0.294 ± 0.029,0.439 ± 0.005,0.279 ± 0.0034,0.286 ± 0.02,0.4087 ± 0.00047,0.397 ± 0.005
PVHARYCSLKWA,0.658 ± 0.037,0.741 ± 0.021,0.6329 ± 0.0026,0.7389 ± 0.0042,0.237 ± 0.036,0.279 ± 0.013,0.5159 ± 0.0024,0.373 ± 0.087
PWGVGLACLFLL,0.469 ± 0.017,0.683 ± 0.016,0.585 ± 0.017,0.736 ± 0.022,0.0882 ± 0.025,0.096 ± 0.017,0.1134 ± 0.00036,0.126 ± 0.025
PYPSVIFFLHVY,0.43 ± 0.0097,0.572 ± 0.0084,0.413 ± 0.029,0.56 ± 0.0098,0.15851 ± 3.4e-05,0.169 ± 0.025,0.237 ± 0.021,0.251 ± 0.049
QIGSMLGVQGVG,0.454 ± 0.017,0.526 ± 0.013,0.461 ± 0.013,0.516 ± 0.0073,0.495 ± 0.014,0.4672 ± 0.0041,0.545 ± 0.027,0.498 ± 0.031
QILVSYSFLYFF,0.5506 ± 0.0046,0.592 ± 0.041,0.44 ± 0.03,0.609 ± 0.023,0.3549 ± 0.0034,0.38 ± 0.017,0.539 ± 0.0058,0.509 ± 0.1
QVVWAVPRICLV,0.53508 ± 0.00047,0.567 ± 0.0099,0.438 ± 0.015,0.579 ± 0.0091,0.335 ± 0.015,0.358 ± 0.028,0.505 ± 0.019,0.445 ± 0.063
QWRSWSFATLVT,0.332 ± 0.017,0.321 ± 0.012,0.266 ± 0.049,0.424 ± 0.0064,0.22 ± 0.0082,0.258 ± 0.038,0.409 ± 0.0052,0.383 ± 0.0045
RCRLYLNVVVLC,0.269 ± 0.027,0.31 ± 0.0054,0.287 ± 0.047,0.413 ± 0.02,0.129 ± 0.01,0.122 ± 0.025,0.17 ± 0.0064,0.246 ± 0.07
RCTFSFSFPFVL,0.738 ± 0.032,0.754 ± 0.034,0.601 ± 0.0084,0.768 ± 0.0096,0.5998 ± 0.0024,0.602 ± 0.023,0.729 ± 0.011,0.596 ± 0.15
RFCRVERAILLR,0.334 ± 0.0068,0.251 ± 0.0061,0.33 ± 0.049,0.4436 ± 0.0035,0.622 ± 0.039,0.351 ± 0.026,0.41 ± 0.0053,0.481 ± 0.015

# From the supplement of paper PMC10724198
